From patent publication US10087231B2, “Substitution mutant receptors and their use in an ecdysone receptor-based inducible gene expression system” (Intrexon Corporation, priority 2001, dated 2018)
Changes are numbered by the printed parent chain. Names and notes keep the numbering of the source. “Also recorded” adds a separate entry of the source.

Assays:
[1] = test system: GAL4/CfEcR-DEF and pFRLuc in NIH3T3 cells; assay: Reporter gene transactivation of VP16/mutant MmRXRα-EF with GAL4/CfEcR-DEF and pFRLuc, GS™-E ligand; format: cell-based, mouse; settings: for induction levels / sensitivity to non-steroid ligand: NIH3T3 cells, 0.2, 1 and 10 μM GS™-E; for background levels in the absence of ligand: NIH3T3 cells, VP16/MmRXRα-EF mutant + GAL4/CfEcR-DEF + pFRLuc, no ligand (DMSO)
Description: (§1) The resulting PCR nucleic acid products encoding the mutant RXR ligand binding domains were then each fused to a VP16 transactivation domain as described in Examples 1.3 and 1.6 above. The VP16/mutant RXR receptor constructs were tested for activity by transfecting them into NIH3T3 cells along with GAL4/CfEcR-DEF and pFRLuc in the presence of non-steroid ligand.
(§2) DNAs corresponding to the various switch constructs outlined in Example 1.1-1.6 were transfected into mouse NIH3T3 cells (ATCC) as follows. Standard methods for culture and maintenance of the cells were followed. […] Superfect™ (Qiagen Inc.) was used as the transfection reagent. For 12-well plates, 4 μl of Superfect™ was mixed with 100 μl of growth medium. One μg of reporter construct and 0.25 μg of each receptor construct of the receptor pair to be analyzed were added to the transfection mix. […] The cells were harvested and reporter activity was assayed.
Cells were harvested 40 hours after adding ligand. […] Twenty μl of lysate were assayed.
DNAs corresponding to the various switch constructs outlined in Example 1, specifically switches 1.1-1.4, were transfected into mouse NIH3T3 cells (ATCC) as follows. […] Two μl of Superfect™ was mixed with 100 μl of growth medium and 50 ng of GAL4/CfEcR-DEF cassette, 50 ng of: VP16/LmUSP-EF, VP16/wild-typeMmRXRα-EF, VP16/MmRXRα-LmUSPchimera-EF, or VP16/mutantMmRXRα-EF, and 200 ng of pFRLuc were added to the transfection mix. […] The cells were harvested and reporter activity was assayed as described above.

[2] = test system: GAL4/CfEcR-DEF and pFRLuc in NIH3T3 cells; format: cell-based, mouse; settings: for non-steroid ligand sensitivity: 0.04-25 μM GS™-E, compared to wild-type HsRXRβ-EF
Description: as §1, §2
Cells were harvested 40 hours after adding ligand. […] Twenty μl of lysate were assayed. […]
The cells were harvested and reporter activity was assayed as described above.
As discussed above, a CfEcR-based gene regulation system is ligand dependent when RXRs are used as the heterodimeric partner and ligand independent when USPs are used as the heterodimeric partner. However, reporter gene expression is induced at very high levels when CfUSP is used as the heterodimeric partner. To improve RXR as heterodimeric partner, Applicants have aligned the polypeptide sequences of several USP and RXR ligand binding domains (domains EF) and identified amino acid residues that are different between these two nuclear receptor family members. In particular, Applicants identified residues that are conserved in all USPs but are different in RXRs and mutated these residues in HsRXRβ. […] The cells were harvested and reporter activity was assayed as described above.

B1: E401D: MmRXRα ligand binding domain substitution mutant, glutamic acid to aspartic acid at 401 of SEQ ID NO: 1, fused to VP16 (protein)
chain: MGPKKKRKVAPPTDVSLGDELHLDGEDVAMAHADALDDFDLDMLGDGDSPGPGFTPHDSAPYGALDMADFEFEQMFTDALGIDEYGGEFPANEDMPVEKILEAELAVEPKTETYVEANMGLNPSSPNDPVTNICQAADKQLFTLVEWAKRIPHFSELPLDDQVILLRAGWNELLIASFSHRSIAVKDGILLATGLHVHRNSAHSAGVGAIFDRVLTELVSKMRDMQMDKTELGCLRAIVLFNPDSKGLSNPAEVEALREKVYASLDAYCKHKYPEQPGRFAKLLLRLPALRSIGLKCLEHLFFFKLIGDTPIDTFLMEMLEAPHQAT
B1 was tested, and the induction levels [1] was “higher induction levels”, the “sensitivity to non-steroid ligand” value [1] was “increased sensitivity to a non-steroid ligand” and the “background levels in the absence of ligand” value (from here on “background levels”) [1] was “higher background”.

B2: G429S: MmRXRα ligand binding domain substitution mutant, glycine to serine at 429 of SEQ ID NO: 1, fused to VP16 (protein)
chain: B1 chain with D266E, G294S
B2 was tested, and the “sensitivity to non-steroid ligand” value [1] was “increased sensitivity to a non-steroid ligand; also recorded: increased sensitivity to ligand” and the “background levels” value [1] was “less background”.

B3: E401D/G429S: double substitution mutant MmRXRα-EF with E401D and G429S; three independent clones analyzed (protein)
chain: B1 chain with G294S
With B3 the induction levels [1] was “increased induction levels”, the “sensitivity to non-steroid ligand” value [1] was “increased induction levels and ligand sensitivity” and the “performance compared with chimeric vertebrate RXR/invertebrate RXR” value ([1]; NIH3T3 cells, 0.2, 1 and 10 μM GS™-E (FIG. 2)) was “work as well as the chimeric RXR”. The “background levels” value [1] was “low background levels”.

B4: V462L: HsRXRβ ligand binding domain substitution mutant (protein, listed as Homo sapiens)
chain: MSWAARPPFLPQRHAAGQCGPVGVRKEMHCGVASRWRRRRPWLDPAAAAAAAVAGGEQQTPEPEPGEAGRDGMGDSGRDSRSPDSSSPNPLPQGVPPPSPPGPPLPPSTAPSLGGSGAPPPPPMPPPPLGSPFPVISSSMGSPGLPPPAPPGFSGPVSSPQINSTVSLPGGGSGPPEDVKPPVLGVRGLHCPPPPGGPGAGKRLCAICGDRSSGKHYGVYSCEGCKGFFKRTIRKDLTYSCRDNKDCTVDKRQRNRCQYCRYQKCLATGMKREAVQEERQRGKDKDGDGEGAGGAPEEMPVDRILEAELAVEQKSDQGVEGPGGTGGSGSSPNDPVTNICQAADKQLFTLVEWAKRIPHFSSLPLDDQVILLRAGWNELLIASFSHRSIDVRDGILLATGLHVHRNSAHSAGVGAIFDRVLTELVSKMRDMRMDKTELGCLRAIILFNPDAKGLSNPSEVELLREKVYASLETYCKQKYPEQQGRFAKLLLRLPALRSIGLKCLEHLFFFKLIGDTPIDTFLMEMLEAPHQLA
modifications: ligand binding domain only
With B4 the non-steroid ligand sensitivity [2] was “improved non-steroid ligand sensitivity”.

B5: T473E: HsRXRβ ligand binding domain substitution mutant (protein, listed as Homo sapiens)
chain: B4 chain with L462V, T473E
modifications: ligand binding domain only
With B5 the non-steroid ligand sensitivity [2] was “improved non-steroid ligand sensitivity”.

B6: E472D: HsRXRβ ligand binding domain substitution mutant (protein, listed as Homo sapiens)
chain: B4 chain with L462V, E472D
modifications: ligand binding domain only
For B6, the non-steroid ligand sensitivity [2] was “improved ligand sensitivity”.

B7: G500S: HsRXRβ ligand binding domain substitution mutant, glycine to serine at 500 (protein, listed as Homo sapiens)
chain: B4 chain with L462V, G500S
modifications: ligand binding domain only
With B7 the non-steroid ligand sensitivity [2] was “improved ligand sensitivity”.

B8: M431L: HsRXRβ ligand binding domain substitution mutant (SEQ ID NO: 2) (protein, listed as Homo sapiens)
chain: B4 chain with M431L, L462V
With B8 the transactivation activity ([2]; 0.04-25 μM GS™-E (FIG. 4)) was “essentially eliminated transactivation activity”.

B9: G321L/P322R/G323V: HsRXRβ ligand binding domain triple substitution mutant (SEQ ID NO: 2) (protein, listed as Homo sapiens)
chain: B4 chain with G321L, P322R, G323V, L462V
For B9, the non-steroid ligand sensitivity [2] was “improved ligand sensitivity”.

B10: D450E/A451V/K452R: HsRXRβ ligand binding domain triple substitution mutant (protein)
chain: MGPKKKRKVAPPTDVSLGDELHLDGEDVAMAHADALDDFDLDMLGDGDSPGPGFTPHDSAPYGALDMADFEFEQMFTDALGIDEYGGEFPAPEEMPVDRILEAELAVEQKSDQGVEGPGGTGGSGSSPNDPVTNICQAADKQLFTLVEWAKRIPHFSSLPLDDQVILLRAGWNELLIASFSHRSIDVRDGILLATGLHVHRNSAHSAGVGAIFDRVLTELVSKMRDMRMDKTELGCLRAIILFNPEVRGLSNPSEVEVLREKVYASLETYCKQKYPEQQGRFAKLLLRLPALRSIGLKCLEHLFFFKLIGDTPIDTFLMEMLEAPHQLA
B10 was tested, and the non-steroid ligand sensitivity [2] was “improved non-steroid ligand sensitivity”.

B11: S455K/N456S/P457A/S458Q: HsRXRβ ligand binding domain quadruple substitution mutant (protein)
chain: B10 chain with E246D, V247A, R248K, S251K, N252S, P253A, S254Q
In the case of B11, the non-steroid ligand sensitivity [2] is reported as “improved non-steroid ligand sensitivity”.

B12: E481D/Q482E/Q483P: HsRXRβ ligand binding domain triple substitution mutant (protein)
chain: B10 chain with E246D, V247A, R248K, E277D, Q278E, Q279P
For B12, the non-steroid ligand sensitivity [2] was “improved non-steroid ligand sensitivity”.

B13: C475T/K476R/Q477T/K478T/Y479H: HsRXRβ ligand binding domain quintuple substitution mutant (protein)
chain: B10 chain with E246D, V247A, R248K, C271T, K272R, Q273T, K274T, Y275H
For B13, the non-steroid ligand sensitivity [2] was “improved non-steroid ligand sensitivity”.
